The target in this assay is T1, soluble human kallikrein related peptidase 2 (hK2) protein (human, UniProt P20151 19-261).
T1 construct: The stated signal peptide is left out here; also called soluble hK2; KLK2
Briefly: SPR; antibody captured by anti-Fc antibody, soluble hK2 injected; 1:1 Langmuir fit. (In SPR one partner is held on a chip, and binding of the other changes the refractive index at the surface.)

T1 sequence (P20151 19-261): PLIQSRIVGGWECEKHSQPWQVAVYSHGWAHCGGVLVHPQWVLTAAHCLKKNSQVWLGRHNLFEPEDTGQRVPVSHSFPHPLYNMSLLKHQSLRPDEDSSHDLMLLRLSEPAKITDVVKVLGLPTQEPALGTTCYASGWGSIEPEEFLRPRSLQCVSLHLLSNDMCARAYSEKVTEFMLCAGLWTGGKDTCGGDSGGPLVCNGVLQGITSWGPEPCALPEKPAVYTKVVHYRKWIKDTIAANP
Description: Affinity of selected hK2 antibodies for soluble hK2 was measured by surface plasmon resonance (SPR). […] Antibodies were captured on a sensor chip coated with an anti-Fc antibody followed by injection of soluble hK2 at various concentrations and specified association and dissociation times. Post dissociation, the surface was regenerated with an appropriate solution to prepare for the next interaction. Kinetic information (on-rate and off-rate constants) were extracted by fitting sensorgrams to the 1:1 Langmuir model. Binding affinity (KD) are reported as the ratio of rate constants (koff/kₒₙ).

B1: KL2B242 (Fab) (Fab, V domains shown)
VH: QVQLQESGPGLVKPSETLSLTCTVSGGSISSYYWSWLRQPAGSGLEWIGRLYVSGFTNYNPSLKSRVTLSLDPSRNQLSLKLSSVTAADTAVYYCAGDSGNYWGWFDPWGQGTLVTVSS
VL: SYELTQPPSVSVSPGETASITCSGDQLGENYACWYQQKPGQSPVLVIYQDSKRPSGIPERFSGSNSGNTATLTISGTQALDEADYYCQAWDNSIVVFGGGTKLTVL
For B1, binding was characterised by a dissociation constant (Kd) of 0.04 nM.

B2: KL2B494 (Fab) (Fab, V domains shown)
VH: QVQLVESGGGLVQPGGSLRLSCAASGFTFSHYAMSWVRQAPGKGLEWVSTIGGSGGSTYYADSVKGRFTISRDNSKNTLYLQMNSLRAEDTAVYYCAKPHIVMVTALLYDGMDVWGQGTMVTVSS
VL: SSELTQPPSVSVAPGQTARITCGGNNIGSKSVHWYQQKPGQAPVLVVYDDSDRPSGIPERFSGSNSGNTATLTISRVEAGDEADYYCQVWDSSSDHVVFGGGTKLTVL
In the case of B2, the Kd (in general, the concentration at which binding is half-saturated) was 0.053 nM.

B3: KL2B53 (Fab) (Fab, V domains shown)
VH: EVQLVESGGGVVQPGRSLRLSCVASGFTFSSYDIHWVRQAPGKGLEWVAIISYDGSKKDYTDSVKGRFTISRDNSKNTLYLQMDSLRVEDSAVYSCARESGWSHYYYYGMDVWGQGTMVTVSS
VL: DIVMTQSPSSLSASVGDRVTITCRASQDISNYLAWYQQKPGKVPKFLIYAASTLHSGVPSRFSGSGSGTDFTLTISSLQPEDVATYYCQKYNSAPYTFGQGTRLEIK
The molecule B3 gave a Kd of 0.08 nM.

B4: KL2B30 (Fab) (Fab, V domains shown)
VH: QVQLQESGPGLVKPSETLSLTCTVSGGSISSYYWSWIRQPPGKGLEWIGYIYYSGSTNYNPSLKSRVTISVDTSKNQFSLKLSSVTAADTAVYYCAGTTIFGVVTPNFYYGMDVWGQGTTVTVSS
VL: DIQMTQSPSFLSASVGDRVTITCRASQGISSYLAWYQQKPGKAPKFLIYAASTLQSGVPSRFSGSGSGTEFTLTISSLQPEDFATYYCQQLNSYPLTFGGGTKVEIK
B4 had a Kd of 0.46 nM.

B5: KL2B467 (Fab) (Fab, V domains shown)
VH: QVQLVESGGGVVQPGRSLRLSCAASGFTFSYYGMHWVRQAPGKGLEWVAFISYDGSNKYYADSVKGRFTISRDNSKNTLYLQMNSLRAEDTAVYYCAHLPYSGSYWAFDYWGQGTQVTVSS
VL: QSVLTQPPSVSVAPGQTASITCGGDNIGSKSVHWYQQKPGQAPVLVVYDNSDRPSGIPERFSGSNSGTTATLTISRVEAGDEADYYCQVWDSSSDHPVVFGGGTKVTV
The molecule B5 returned a Kd of 0.078 nM.
